For orientation: Kd means the equilibrium constant for the complex coming apart. One may read the koff as the rate constant with which the complex falls apart. The kon is the second-order rate constant of association. Read a high kon as fast association.

Test [1] has as its target T1, hCD73-his (full length extracellular domain of human CD73, residues 26-546, C-terminal polyhistidine tag) (human, UniProt P21589 26-546).
T1 construct: range 26-546; not shown: C-terminal polyhistidine tag
T1 sequence (looked up): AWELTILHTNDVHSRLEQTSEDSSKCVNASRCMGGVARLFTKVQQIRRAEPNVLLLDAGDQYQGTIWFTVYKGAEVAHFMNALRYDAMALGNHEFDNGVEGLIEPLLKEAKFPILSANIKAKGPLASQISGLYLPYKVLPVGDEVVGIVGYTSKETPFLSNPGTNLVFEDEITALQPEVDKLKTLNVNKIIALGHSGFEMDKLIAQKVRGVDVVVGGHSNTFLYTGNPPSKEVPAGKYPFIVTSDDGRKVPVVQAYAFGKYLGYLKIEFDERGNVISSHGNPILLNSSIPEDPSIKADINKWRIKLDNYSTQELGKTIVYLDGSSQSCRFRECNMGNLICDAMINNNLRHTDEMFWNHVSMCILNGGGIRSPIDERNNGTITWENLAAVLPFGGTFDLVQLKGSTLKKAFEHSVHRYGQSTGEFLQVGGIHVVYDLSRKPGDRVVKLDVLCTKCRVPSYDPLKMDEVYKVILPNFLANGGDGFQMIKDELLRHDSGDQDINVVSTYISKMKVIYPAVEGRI
Briefly: SEC, 5.5 uM each; peak 1: complexes larger than 4:4. How it is done: (§1) The oligomeric state of CD73/antibody complexes were examined by size-exclusion chromatography coupled to an in-line multi-angle light scattering detector (SEC-MALS). Isocratic separations were performed on a Shodex PROTEIN KW-803 column connected to an Prominence Shimadzu UFLC in buffer containing 200 mM K₂HPO₄, 150 mM NaCl, pH 6.8, containing 0.02% Na azide (0.1 μm filtered) running at 0.5 mL/min. Samples were injected onto the column using a SIL-20AC Prominence Shimadzu autosampler, and data were obtained from three online detectors connected in series: a Prominence SPD-20AD diode array UV/vis spectrophotometer followed by a Wyatt miniDAWN™ TREOS Multi-Angle Light Scattering Detector then a Wyatt Optilab T-rEX Refractive Index Detector. Data were collected and analyzed using Astra (Wyatt) and Labsolutions (Shimadzu) software.
(§2) CD73.4 antibodies having the heavy chain constant regions set forth in Table 14 were also tested for formation of high molecular weight complexes by SEC-MALS and DLS experiments, as described in Example 3.
In general terms: In gel filtration, larger molecules generally elute earlier.

For test [2], the target named is T2, human CD73 on Calu6 cells (human, UniProt P21589 27-549).
T2 sequence (looked up): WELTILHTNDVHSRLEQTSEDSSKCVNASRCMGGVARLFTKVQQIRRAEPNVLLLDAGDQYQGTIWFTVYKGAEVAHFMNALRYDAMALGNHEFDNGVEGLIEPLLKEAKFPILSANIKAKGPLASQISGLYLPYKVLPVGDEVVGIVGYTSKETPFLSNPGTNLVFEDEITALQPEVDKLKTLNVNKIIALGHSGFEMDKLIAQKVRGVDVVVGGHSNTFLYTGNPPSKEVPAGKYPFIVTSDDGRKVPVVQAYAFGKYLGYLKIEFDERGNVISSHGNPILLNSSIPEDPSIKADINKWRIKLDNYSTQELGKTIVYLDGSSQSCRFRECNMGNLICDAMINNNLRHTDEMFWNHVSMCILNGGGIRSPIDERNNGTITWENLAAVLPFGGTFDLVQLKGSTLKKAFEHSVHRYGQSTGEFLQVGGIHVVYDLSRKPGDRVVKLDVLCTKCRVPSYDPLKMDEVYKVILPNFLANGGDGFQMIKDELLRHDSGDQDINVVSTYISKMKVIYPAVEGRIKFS
As to the kind of experiment: cell-based or functional assay.

For test [3], the target named is T1, hCD73-his (full length extracellular …). Briefly: SEC, 5.5 uM each; peak 2: about 2:2 complexes. How it is done:
as §1, §2

The target is the same in test [4]. Briefly: SEC, 5.5 uM each; peak 4: free mAb. The procedure:
as §1, with “Isocratic” for “The oligomeric state of CD73/antibody complexes were examined by size-exclusion chromatography coupled to an in-line multi-angle light scattering detector (SEC-MALS). Isocratic”
as §2

In test [5] the target is T2, human CD73 on Calu6 cells. Briefly: cell-based or functional assay. This is another data set of the same source.
In test [6] the target is T3, N-hCD73-his (N-terminal domain of human CD73, residues 26-336) (human, UniProt P21589 26-336).
T3 construct: not shown: his tag
T3 sequence (looked up): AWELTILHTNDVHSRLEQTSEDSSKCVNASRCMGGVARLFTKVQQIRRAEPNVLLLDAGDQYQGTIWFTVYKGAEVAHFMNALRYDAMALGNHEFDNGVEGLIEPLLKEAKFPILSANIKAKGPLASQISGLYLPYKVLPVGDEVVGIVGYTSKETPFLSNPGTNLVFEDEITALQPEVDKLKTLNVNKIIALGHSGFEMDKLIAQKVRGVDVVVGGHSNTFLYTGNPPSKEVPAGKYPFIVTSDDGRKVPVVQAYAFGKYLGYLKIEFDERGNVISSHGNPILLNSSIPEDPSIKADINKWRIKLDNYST
As to the kind of experiment: SPR (Biacore T100), mAb captured on protein A, N-hCD73-his analyte. The procedure: The affinity of the antibodies for human CD73 was measured to determine whether the change of the constant region affects them. The affinities were determined by Surface Plasmon Resonance (SPR) as follows. […] For these experiments, protein A (Pierce) was immobilized to a density of 3000-4000 RU on flow cells 1-4 of a CM5 sensor chip (GE Healthcare) using standard ethyl(dimethylaminopropyl) carbodiimide (EDC)/N-hydroxysuccinimide (NHS) chemistry, with ethanolamine blocking, in a running buffer of 0.01 M HEPES pH 7.4, 0.15 M NaCl, 3 mM EDTA, 0.005% v/v tween 20. […] The running buffer for the kinetic experiments was 10 mM sodium phosphate, 130 mM sodium chloride, 0.05% tween 20, pH 7.1. The surfaces were regenerated after each cycle using two 30 s pulses of 10 mM glycine pH 1.5 at a flow rate of 30 μl/min. Sensogram data was double-referenced and then fitted to a 1:1 Langmuir model using Biacore T100 evaluation software v2.0.4, to determine the association rate constant (ka), the dissociation rate constant (kd), and the equilibrium dissociation constant (KD).
(In general: SPR reads the build-up and loss of mass on a sensor chip optically.)

In test [7] the target is T2, human CD73 on Calu6 cells. Briefly: cell-based or functional assay. This is another data set of the same source.
The target in test [8] is T4, human GITR on cells (activated human T cells; 3A9-hGITR cells) (human, UniProt Q9Y5U5 26-241).
T4 sequence (looked up): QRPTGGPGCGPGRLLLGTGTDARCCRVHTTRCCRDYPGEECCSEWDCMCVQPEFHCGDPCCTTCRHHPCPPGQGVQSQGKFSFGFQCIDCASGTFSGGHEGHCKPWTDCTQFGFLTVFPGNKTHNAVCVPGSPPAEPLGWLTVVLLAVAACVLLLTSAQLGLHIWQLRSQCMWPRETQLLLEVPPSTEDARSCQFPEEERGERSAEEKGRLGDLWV
As to the kind of experiment: cell-based or functional assay.

Values joined by “and” are separate entries in the source; they are usually repeats but may differ in a detail not shown here. Identical values can stand only once.

B1: CD73.4-IgG2.3G1-KH (antibody)
heavy: QVQLVESGGGVVQPGRSLRLSCAASGFTFSNYGMHWVRQAPGKGLEWVAVILYDGSNKYYPDSVKGRFTISRDNSKNTLYLQMNSLRAEDTAVYYCARGGSSWYPDSFDIWGQGTMVTVSSASTKGPSVFPLAPCSRSTSESTAALGCLVKDYFPEPVTVSWNSGALTSGVHTFPAVLQSSGLYSLSSVVTVPSSNFGTQTYTCNVDHKPSNTKVDKTVERKSCVECPPCPAPPVAGPSVFLFPPKPKDTLMISRTPEVTCVVVDVSHEDPEVKFNWYVDGVEVHNAKTKPREEQYNSTYRVVSVLTVLHQDWLNGKEYKCKVSNKALPAPIEKTISKAKGQPREPQVYTLPPSREEMTKNQVSLTCLVKGFYPSDIAVEWESNGQPENNYKTTPPVLDSDGSFFLYSKLTVDKSRWQQGNVFSCSVMHEALHNHYTQKSLSLSPGK
light: not shown
For B1, the “UV % Peak1 (<12.9 min)” value in test [1] came to 34.9%. In addition, in test [2], the “T1/2 (hr) of CD73 internalization, Calu6 cells” value was determined as 0.396 h; the “T1/2 (hr) of CD73 internalization, NCI-H292 cells” value stood at 0.28 h; the “Ymax (%) of CD73 internalization, Calu6 cells” value was found to be 81.6%; the “Ymax (%) of CD73 internalization, NCI-H292 cells” value was found to be 91.6%. For the same molecule, the “UV % Peak2 (12.9-15.1 min)” value in test [3] came to 23.4%.

B2: CD73.4-IgG2.3-plusTHT (antibody)
heavy: QVQLVESGGGVVQPGRSLRLSCAASGFTFSNYGMHWVRQAPGKGLEWVAVILYDGSNKYYPDSVKGRFTISRDNSKNTLYLQMNSLRAEDTAVYYCARGGSSWYPDSFDIWGQGTMVTVSSASTKGPSVFPLAPCSRSTSESTAALGCLVKDYFPEPVTVSWNSGALTSGVHTFPAVLQSSGLYSLSSVVTVPSSNFGTQTYTCNVDHKPSNTKVDKTVERKSCVETHTCPPCPAPPVAGPSVFLFPPKPKDTLMISRTPEVTCVVVDVSHEDPEVQFNWYVDGVEVHNAKTKPREEQFNSTFRVVSVLTVVHQDWLNGKEYKCKVSNKGLPAPIEKTISKTKGQPREPQVYTLPPSREEMTKNQVSLTCLVKGFYPSDIAVEWESNGQPENNYKTTPPMLDSDGSFFLYSKLTVDKSRWQQGNVFSCSVMHEALHNHYTQKSLSLSPGK
light: not shown
On to B2, for which, in test [4], the “UV % Peak4 (16.7-19.3 min)” value is 33.7%. In addition, the “UV % Peak1 (<12.9 min)” value in test [1] worked out at 30.6%. Besides, in test [2], the “T1/2 (hr) of CD73 internalization, Calu6 cells” value is 0.355 h; the “T1/2 (hr) of CD73 internalization, NCI-H292 cells” value was found to be 0.293 h; the “Ymax (%) of CD73 internalization, Calu6 cells” value came to 81.2%; the “Ymax (%) of CD73 internalization, NCI-H292 cells” value was 91.4%.

B3: CD73.10-IgG2-C219S-IgG1.1 (antibody)
heavy: QVQLVESGGGVVQPGRSLRLSCAASGFTFSNYGMHWVRQAPGKGLEWVAVIWYDESNKYYPDSVKGRFTISRDNSKNTLYLQMNSLRAEDTAVYYCARGGSSWYPDSFDIWGQGTMVTVSSASTKGPSVFPLAPCSRSTSESTAALGCLVKDYFPEPVTVSWNSGALTSGVHTFPAVLQSSGLYSLSSVVTVPSSNFGTQTYTCNVDHKPSNTKVDKTVERKSCVECPPCPAPPVAGPSVFLFPPKPKDTLMISRTPEVTCVVVDVSHEDPEVKFNWYVDGVEVHNAKTKPREEQYNSTYRVVSVLTVLHQDWLNGKEYKCKVSNKALPSSIEKTISKAKGQPREPQVYTLPPSREEMTKNQVSLTCLVKGFYPSDIAVEWESNGQPENNYKTTPPMLDSDGSFFLYSKLTVDKSRWQQGNVFSCSVMHEALHNHYTQKSLSLSPG
light: not shown
notes: anti-CD73; also called CD73.10-IgG2CS-IgG1.1f
As for B3, in test [5], the “% internalization, Calu6 cells” value was 91%; the “% internalization, H228 cells” value is 92%; the “% internalization, H2030 cells” value was determined as 87%; the “% internalization, HCC15 cells” value was 91%. In addition, in test [5], the “T1/2 min of internalization, Calu6 cells” value worked out at 3.1 min; the “T1/2 min of internalization, H228 cells” value came out at 9.4 min; the “T1/2 min of internalization, H2030 cells” value was found to be 4.3 min; the “T1/2 min of internalization, HCC15 cells” value was 3 min. Further, in test [6], the Kd was 5.7 nM and 6.8 nM; the koff is 0.0014 s⁻¹ and 0.0016 s⁻¹; the kon is 240000 M⁻¹ s⁻¹ and 230000 M⁻¹ s⁻¹. In addition, in test [7], the “EC50 (nM) of CD73 internalization, Calu6 cells, 2 h” value came out at 0.87 nM and the “Ymax of CD73 internalization (% of 100 nM 11F11)” value turned out to be 99%.

B4: anti-GITR-IgG2 (antibody)
heavy: QVQLVESGGGVVQPGRSLRLSCAASGFTFSSYGMHWVRQAPGKGLEWVAVIWYEGSNKYYADSVKGRFTISRDNSKNTLYLQMNSLRAEDTAVYYCARGGSMVRGDYYYGMDVWGQGTTVTVSSASTKGPSVFPLAPCSRSTSESTAALGCLVKDYFPEPVTVSWNSGALTSGVHTFPAVLQSSGLYSLSSVVTVPSSNFGTQTYTCNVDHKPSNTKVDKTVERKCCVECPPCPAPPVAGPSVFLFPPKPKDTLMISRTPEVTCVVVDVSHEDPEVQFNWYVDGVEVHNAKTKPREEQFNSTFRVVSVLTVVHQDWLNGKEYKCKVSNKGLPAPIEKTISKTKGQPREPQVYTLPPSREEMTKNQVSLTCLVKGFYPSDIAVEWESNGQPENNYKTTPPMLDSDGSFFLYSKLTVDKSRWQQGNVFSCSVMHEALHNHYTQKSLSLSPGK
light: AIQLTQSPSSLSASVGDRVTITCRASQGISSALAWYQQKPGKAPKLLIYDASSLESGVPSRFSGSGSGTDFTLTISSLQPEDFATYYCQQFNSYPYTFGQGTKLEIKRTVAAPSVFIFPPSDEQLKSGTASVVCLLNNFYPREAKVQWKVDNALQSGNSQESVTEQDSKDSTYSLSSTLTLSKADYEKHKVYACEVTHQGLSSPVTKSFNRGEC
Take B4: in test [8], the “EC50 (nM), phospho-p65 NFkB signaling, CD4+ T cells” value was 12.8 nM; the “EC50 (nM), phospho-p65 NFkB signaling, CD8+ T cells” value is 9 nM; the “Emax (%), phospho-p65 NFkB signaling, CD4+ T cells” value stood at 69%; the “Emax (%), phospho-p65 NFkB signaling, CD8+ T cells” value stood at 85%.

The record behind these values is patent publication US20200268901A1 (Bristol-Myers Squibb, published 2020).
